These results are taken from paper PMC4678811, “Assembly and dynamics of the U4/U6 di-snRNP by single-molecule FRET” (Nucleic Acids Research, 2015).

Values joined by “and” are separate entries in the source; they are usually repeats but may differ in a detail not shown here. Equal values may be shown once.

The subject of series [1] is LSm2-LSm8 complex (Saccharomyces cerevisiae). Nature of the series: EMSA. The settings on record: apparent; Hill 1.7; EMSA: 2 nM RNA, 10 mM K-HEPES pH 7.5, 100 mM KCl, 0.01% NP-40, 20 ug E. coli tRNA in 100 ul, on ice 60 min, 4% native gel 0.5X TBE 4 C; smFRET: 10 mM Tris-HCl …. Background: Mobility shift assays separate free from complexed probe on a gel.
Series [2] has as its system Prp3/4 (Prp3-Prp4 complex) (Saccharomyces cerevisiae). Nature of the series: EMSA. The settings on record: apparent; Hill 2.6; EMSA: 2 nM RNA, 10 mM K-HEPES pH 7.5, 100 mM KCl, 0.01% NP-40, 20 ug E. coli tRNA in 100 ul, on ice 60 min, 4% native gel 0.5X TBE 4 C; smFRET: 10 mM Tris-HCl ….
The test system of series [3] is Prp31 (Saccharomyces cerevisiae). Nature of the series: EMSA. Particulars: apparent; Hill 1.9; EMSA: 2 nM RNA, 10 mM K-HEPES pH 7.5, 100 mM KCl, 0.01% NP-40, 20 ug E. coli tRNA in 100 ul, on ice 60 min, 4% native gel 0.5X TBE 4 C; smFRET: 10 mM Tris-HCl ….
Series [4] relates to Sm protein complex (SmB, D1, D2, D3, E, F, G) (Saccharomyces cerevisiae). Nature of the series: EMSA. The settings on record: apparent; Hill 3.5; EMSA: 2 nM RNA, 10 mM K-HEPES pH 7.5, 100 mM KCl, 0.01% NP-40, 20 ug E. coli tRNA in 100 ul, on ice 60 min, 4% native gel 0.5X TBE 4 C; smFRET: 10 mM Tris-HCl ….
Series [5] deals with Snu13 (Saccharomyces cerevisiae). Nature of the series: EMSA. The settings on record: apparent; Hill 1; EMSA: 2 nM RNA, 10 mM K-HEPES pH 7.5, 100 mM KCl, 0.01% NP-40, 20 ug E. coli tRNA in 100 ul, on ice 60 min, 4% native gel 0.5X TBE 4 C; smFRET: 10 mM Tris-HCl ….
Series [6] concerns the molecule itself. Nature of the series: native MS; minor peaks of the Mono-Q column after the main peak of the purified LSm2–LSm8 complex.

With U4/U6 snRNA duplex (full length), the Kd in series [1] is 5 nM; in series [2] it was 57 nM; in series [3] it was 243 nM; in series [4] it was 89 nM; in series [5], 17 nM.

B1: LSm2–LSm8 complex (complex, Saccharomyces cerevisiae)
chain 1: MLFFSFFKTLVDQEVVVELKNDIEIKGTLQSVDQFLNLKLDNISCTDEKKYPHLGSVRNIFIRGSTVRYVYLNKNMVDTNLLQDATRREVMTERK
chain 2: METPLDLLKLNLDERVYIKLRGARTLVGTLQAFDSHCNIVLSDAVETIYQLNNEELSESERRCEMVFIRGDTVTLISTPSEDDDGAVEI
chain 3: MLPLYLLTNAKGQQMQIELKNGEIIQGILTNVDNWMNLTLSNVTEYSEESAINSEDNAESSKAVKLNEIYIRGTFIKFIKLQDNIIDKVKQQINSNNNSNSNGPGH
chain 4: MSLPEILPLEVIDKTINQKVLIVLQSNREFEGTLVGFDDFVNVILEDAVEWLIDPEDESRNEKVMQHHGRMLLSGNNIAILVPGGKKTPTEAL
chain 5: MSGKASTEGSVTTEFLSDIIGKTVNVKLASGLLYSGRLESIDGFMNVALSSATEHYESNNNKLLNKFNSDVFLRGTQVMYISEQKI
chain 6: MHQQHSKSENKPQQQRKKFEGPKREAILDLAKYKDSKIRVKLMGGKLVIGVLKGYDQLMNLVLDDTVEYMSNPDDENNTELISKNARKLGLTVIRGTILVSLSSAEGSDVLYMQK
chain 7: MSATLKDYLNKRVVIIKVDGECLIASLNGFDKNTNLFITNVFNRISKEFICKAQLLRGSEIALVGLIDAENDDSLAPIDEKKVPMLKDTKNKIENEHVIWEKVYESKTK
notes: LSm2, Saccharomyces cerevisiae, untagged; LSm3, Saccharomyces cerevisiae, untagged; LSm4, Saccharomyces cerevisiae, amino acids 1-106, untagged; LSm5, Saccharomyces cerevisiae; LSm6, Saccharomyces cerevisiae, untagged; LSm7, Saccharomyces cerevisiae, untagged; LSm8, Saccharomyces cerevisiae; Both tags are TEV-cleavable; also called LSm 2–8 complex; LSm complex; source: S. cerevisiae BCY123, …
For the molecule B1, the “stoichiometry N” value in series [6] was 2 and 3.

As usually defined, the stoichiometry N is a count of units in the complex or per binding partner.
